Data from US20090055975A1.

B1: phage PhD3.1 displaying peptide GBP3.1 (peptide, not shown: large carriers)
peptide: ATCSKKYPRSPCMA

Biological target: receptor on the pea aphid (Acyrthosiphon pisum) gut epithelium
Test: cell-based or functional assay

Molecule	Detection of PEMV RNA in the aphid hemocoel, 1-10 min (No. of positive/No. of tested) (positive samples of 4 tested)	Detection of PEMV RNA in the aphid hemocoel, 11-20 min (No. of positive/No. of tested) (positive samples of 4 tested)	Detection of PEMV RNA in the aphid hemocoel, 21-30 min (No. of positive/No. of tested) (positive samples of 4 tested)	time of feeding on virus-infected plants until viral RNA is detected in hemolymph [min]	Detection of PEMV RNA in the aphid hemocoel, 1-10 min (No. of positive/No. of tested) (positive samples of 6 tested)	Detection of PEMV RNA in the aphid hemocoel, 11-20 min (No. of positive/No. of tested) (positive samples of 6 tested)	Detection of PEMV RNA in the aphid hemocoel, 21-30 min (No. of positive/No. of tested) (positive samples of 6 tested)	Detection of PEMV RNA in the aphid hemocoel, 31-40 min (No. of positive/No. of tested) (positive samples of 6 tested)	Detection of PEMV RNA in the aphid hemocoel, 41-50 min (No. of positive/No. of tested) (positive samples of 6 tested)	Detection of PEMV RNA in the aphid hemocoel, 51-60 min (No. of positive/No. of tested) (positive samples of 6 tested)	Detection of PEMV RNA in the aphid hemocoel, 61-75 min (No. of positive/No. of tested) (positive samples of 2 tested)	Detection of PEMV RNA in the aphid hemocoel, 76-90 min (No. of positive/No. of tested) (positive samples of 2 tested)
control phage PhDC6 displaying control peptide C6	0	0	2	30								
B1				60	0	0	0	0	0	1	0	0
